Source: patent US20250236653A1 (ONKO INNATE, published 2025)

T1: human OX40 (human, UniProt P43489 29-277)
T1 construct: whole, on cells; also called hOX40
T1 sequence (looked up): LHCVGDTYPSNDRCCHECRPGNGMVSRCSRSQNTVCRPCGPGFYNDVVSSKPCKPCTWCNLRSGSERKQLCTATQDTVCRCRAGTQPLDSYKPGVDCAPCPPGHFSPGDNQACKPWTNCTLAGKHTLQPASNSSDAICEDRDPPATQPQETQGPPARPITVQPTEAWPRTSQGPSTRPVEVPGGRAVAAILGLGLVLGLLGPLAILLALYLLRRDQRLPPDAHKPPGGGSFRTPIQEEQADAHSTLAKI


Experiments:
[1] = biological target: T1, human OX40; experiment: flow cytometry on hOX40-Jurkat-NF-κB cells
Experimental: Stained hOX40-Jurkat-NF-κB and cOX40-Jurkat-NF-κB cells were analyzed by flow cytometry using a CytoFLEX (Beckman Coulter), the results of which are depicted in FIGS. 78 and 79, respectively, and summarized in FIG. 80.
Binding of each of the sequence optimized IL-12 ABD fusion proteins to hOX40-Jurkat-NF-κB cells was performed as described in Example 16, the results of which are depicted in FIG. 87 and summarized in FIG. 88.

[2] = biological target: human IL-12 receptor (human, UniProt P42701 24-662; Q99665 24-862); experiment: cell-based or functional assay
Sequence of human IL-12 receptor (Q99665 24-862 limits assumed, chain 2 of 2, other chains not shown): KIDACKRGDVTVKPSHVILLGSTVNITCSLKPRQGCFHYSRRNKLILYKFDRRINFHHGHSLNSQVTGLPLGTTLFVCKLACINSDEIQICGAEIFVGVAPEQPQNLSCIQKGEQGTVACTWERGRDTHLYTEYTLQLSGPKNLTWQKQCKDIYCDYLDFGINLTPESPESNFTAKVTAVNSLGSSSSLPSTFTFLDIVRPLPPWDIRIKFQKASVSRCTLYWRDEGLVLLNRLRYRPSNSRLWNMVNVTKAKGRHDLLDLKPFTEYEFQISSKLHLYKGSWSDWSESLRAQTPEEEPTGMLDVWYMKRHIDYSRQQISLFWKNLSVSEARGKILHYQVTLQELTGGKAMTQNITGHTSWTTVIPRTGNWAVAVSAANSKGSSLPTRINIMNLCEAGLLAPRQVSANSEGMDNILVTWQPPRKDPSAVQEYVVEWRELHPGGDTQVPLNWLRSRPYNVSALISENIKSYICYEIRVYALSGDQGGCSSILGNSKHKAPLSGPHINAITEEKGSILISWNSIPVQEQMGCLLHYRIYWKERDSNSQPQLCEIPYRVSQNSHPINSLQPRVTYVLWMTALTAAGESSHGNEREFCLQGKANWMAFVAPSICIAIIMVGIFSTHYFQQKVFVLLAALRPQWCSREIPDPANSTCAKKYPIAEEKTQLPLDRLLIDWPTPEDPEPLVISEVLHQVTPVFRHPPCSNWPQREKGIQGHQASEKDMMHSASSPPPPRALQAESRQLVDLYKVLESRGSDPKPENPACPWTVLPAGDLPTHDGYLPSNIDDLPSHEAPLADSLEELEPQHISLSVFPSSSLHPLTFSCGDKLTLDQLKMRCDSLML

| Binder | EC50 [1] [nM] | further results |
| --- | --- | --- |
| mono-mut23-20E5_V5 (Fc fusion) IWELKKDVYVVELDWYPDAPGEMVVLTCDTPEEDGITWTLDQSSEVLGSGKTLTIQVKEFGDAGQYTCHKGGEVLSHSLLLLHKKEDGIWSTDILKDQKEPKNKTFLRCEAKNYSGRFTCWWLTTISTDLTFSVKSSRGSSDPQGVTCGAATLSAERVRGDNKEYEYSVECQEDSACPAAEESLPIEVMVDAVHKLKYENYTSSFFIRDIIKPDPPKNLQLKPLKNSRQVEVSWEYPDTWSTPHSYFSLTFSVQVQGKSKREKKDRVFTDKTSATVICRKNASISVRAQDRYYSSSWSEWASVPCSGGGGSGGGGSGGGGSGGGGSGGGGSRNLPVATPDPGMFPCLHHSQNLLRAVSNMLQKARQTLEFSPCTSEEIDHEDITKDKTSTVEACLPLELTKNESCLNSRETSFITNGSCLASRKTSFMMALCLSSIYEDLKMYQVEFKTMNAKLLMDPKRQIFLDQNMLAVIDELMQALNFNSETVPQKSSLEEPDFYKTAIKLCILLHAFRIRAVTIDRVMSYLNASGGGGSGGGGSEPKSSDKTHTCPPCPAPEFEGGPSVFLFPPKPKDTLMISRTPEVTCVVVDVSHEDPEVKFNWYVDGVEVHNAKTKPREEQYNSTYRVVSVLTVLHQDWLNGKEYKCKVSNKALPASIEKTISKAKGQPREPQVCTLPPSRDELTKNQVSLSCAVKGFYPSDIAVEWESNGQPENNYKTTPPVLDSDGSFFLVSKLTVDKSRWQQGNVFSCSVMHEALHNHYTQKSLSLSPG heavy: QVQLVQSGAEVKKPGASVKVSCKASGYTFTSYVMHWVRQAPGQRLEWIGYINPYNAGTKYNEKFKGRATLTSDKSASTAYMELSSLRSEDTAVYYCANYYGSSLSMDYWGQGTLVTVSSASTKGPSVFPLAPSSKSTSGGTAALGCLVKDYFPEPVTVSWNSGALTSGVHTFPAVLQSSGLYSLSSVVTVPSSSLGTQTYICNVNHKPSNTKVDKKVEPKSCDKTHTCPPCPAPEFEGGPSVFLFPPKPKDTLMISRTPEVTCVVVDVSHEDPEVKFNWYVDGVEVHNAKTKPREEQYNSTYRVVSVLTVLHQDWLNGKEYKCKVSNKALPASIEKTISKAKGQPREPQVYTLPPCRDELTKNQVSLWCLVKGFYPSDIAVEWESNGQPENNYKTTPPVLDSDGSFFLYSKLTVDKSRWQQGNVFSCSVMHEALHNHYTQKSLSLSPG light: not shown | – | binding result [1]: binds |
| mono-mut23-12H3_V6 (Fc fusion) IWELKKDVYVVELDWYPDAPGEMVVLTCDTPEEDGITWTLDQSSEVLGSGKTLTIQVKEFGDAGQYTCHKGGEVLSHSLLLLHKKEDGIWSTDILKDQKEPKNKTFLRCEAKNYSGRFTCWWLTTISTDLTFSVKSSRGSSDPQGVTCGAATLSAERVRGDNKEYEYSVECQEDSACPAAEESLPIEVMVDAVHKLKYENYTSSFFIRDIIKPDPPKNLQLKPLKNSRQVEVSWEYPDTWSTPHSYFSLTFSVQVQGKSKREKKDRVFTDKTSATVICRKNASISVRAQDRYYSSSWSEWASVPCSGGGGSGGGGSGGGGSGGGGSGGGGSRNLPVATPDPGMFPCLHHSQNLLRAVSNMLQKARQTLEFSPCTSEEIDHEDITKDKTSTVEACLPLELTKNESCLNSRETSFITNGSCLASRKTSFMMALCLSSIYEDLKMYQVEFKTMNAKLLMDPKRQIFLDQNMLAVIDELMQALNFNSETVPQKSSLEEPDFYKTAIKLCILLHAFRIRAVTIDRVMSYLNASGGGGSGGGGSEPKSSDKTHTCPPCPAPEFEGGPSVFLFPPKPKDTLMISRTPEVTCVVVDVSHEDPEVKFNWYVDGVEVHNAKTKPREEQYNSTYRVVSVLTVLHQDWLNGKEYKCKVSNKALPASIEKTISKAKGQPREPQVCTLPPSRDELTKNQVSLSCAVKGFYPSDIAVEWESNGQPENNYKTTPPVLDSDGSFFLVSKLTVDKSRWQQGNVFSCSVMHEALHNHYTQKSLSLSPG heavy: QVQLVQSGAEVKKPGSSVKVSCKASGYTFKDYTMHWVRQAPGQGLEWIGGIYPNNGGSTYNQNFKDRVTLTADKSTSTAYMELSSLRSEDTAVYYCARLGYHGPHLDFDVWGQGTTVTVSSASTKGPSVFPLAPSSKSTSGGTAALGCLVKDYFPEPVTVSWNSGALTSGVHTFPAVLQSSGLYSLSSVVTVPSSSLGTQTYICNVNHKPSNTKVDKKVEPKSCDKTHTCPPCPAPEFEGGPSVFLFPPKPKDTLMISRTPEVTCVVVDVSHEDPEVKFNWYVDGVEVHNAKTKPREEQYNSTYRVVSVLTVLHQDWLNGKEYKCKVSNKALPASIEKTISKAKGQPREPQVYTLPPCRDELTKNQVSLWCLVKGFYPSDIAVEWESNGQPENNYKTTPPVLDSDGSFFLYSKLTVDKSRWQQGNVFSCSVMHEALHNHYTQKSLSLSPG light: DIQMTQSPSSLSASVGDRVTITCKASQDVGAAVAWYQQKPGKAPKLLIYWASTRHTGVPSRFSGSGSGTDFTLTISSLQPEDFATYYCQQYINYPLTFGGGTKVEIKRTVAAPSVFIFPPSDEQLKSGTASVVCLLNNFYPREAKVQWKVDNALQSGNSQESVTEQDSKDSTYSLSSTLTLSKADYEKHKVYACEVTHQGLSSPVTKSFNRGEC | 645 | – |
| mono-mut23-12H3_V5 (Fc fusion) IWELKKDVYVVELDWYPDAPGEMVVLTCDTPEEDGITWTLDQSSEVLGSGKTLTIQVKEFGDAGQYTCHKGGEVLSHSLLLLHKKEDGIWSTDILKDQKEPKNKTFLRCEAKNYSGRFTCWWLTTISTDLTFSVKSSRGSSDPQGVTCGAATLSAERVRGDNKEYEYSVECQEDSACPAAEESLPIEVMVDAVHKLKYENYTSSFFIRDIIKPDPPKNLQLKPLKNSRQVEVSWEYPDTWSTPHSYFSLTFSVQVQGKSKREKKDRVFTDKTSATVICRKNASISVRAQDRYYSSSWSEWASVPCSGGGGSGGGGSGGGGSGGGGSGGGGSRNLPVATPDPGMFPCLHHSQNLLRAVSNMLQKARQTLEFSPCTSEEIDHEDITKDKTSTVEACLPLELTKNESCLNSRETSFITNGSCLASRKTSFMMALCLSSIYEDLKMYQVEFKTMNAKLLMDPKRQIFLDQNMLAVIDELMQALNFNSETVPQKSSLEEPDFYKTAIKLCILLHAFRIRAVTIDRVMSYLNASGGGGSGGGGSEPKSSDKTHTCPPCPAPEFEGGPSVFLFPPKPKDTLMISRTPEVTCVVVDVSHEDPEVKFNWYVDGVEVHNAKTKPREEQYNSTYRVVSVLTVLHQDWLNGKEYKCKVSNKALPASIEKTISKAKGQPREPQVCTLPPSRDELTKNQVSLSCAVKGFYPSDIAVEWESNGQPENNYKTTPPVLDSDGSFFLVSKLTVDKSRWQQGNVFSCSVMHEALHNHYTQKSLSLSPG heavy: QVQLVQSGAEVKKPGSSVKVSCKASGYTFKDYTMHWVRQAPGQGLEWIGGIYPNNAGSTYNQNFKDRVTLTADKSTSTAYMELSSLRSEDTAVYYCARMGYHGPHLDFDVWGQGTTVTVSSASTKGPSVFPLAPSSKSTSGGTAALGCLVKDYFPEPVTVSWNSGALTSGVHTFPAVLQSSGLYSLSSVVTVPSSSLGTQTYICNVNHKPSNTKVDKKVEPKSCDKTHTCPPCPAPEFEGGPSVFLFPPKPKDTLMISRTPEVTCVVVDVSHEDPEVKFNWYVDGVEVHNAKTKPREEQYNSTYRVVSVLTVLHQDWLNGKEYKCKVSNKALPASIEKTISKAKGQPREPQVYTLPPCRDELTKNQVSLWCLVKGFYPSDIAVEWESNGQPENNYKTTPPVLDSDGSFFLYSKLTVDKSRWQQGNVFSCSVMHEALHNHYTQKSLSLSPG light: DIQMTQSPSSLSASVGDRVTITCKASQDVGAAVAWYQQKPGKAPKLLIYWASTRHTGVPSRFSGSGSGTDFTLTISSLQPEDFATYYCQQYINYPLTFGGGTKVEIKRTVAAPSVFIFPPSDEQLKSGTASVVCLLNNFYPREAKVQWKVDNALQSGNSQESVTEQDSKDSTYSLSSTLTLSKADYEKHKVYACEVTHQGLSSPVTKSFNRGEC | 113 | – |
| IL-12 Fc mut9 (Fc fusion) RNLPVATPDPGMFPCLHHSQNLLRAVSNMLQKARQTLEFPPCTSEEIDHEDITKDKTSTVEACLPLELTKNESCLNSRETSFITNGSCLASRKTSFMMALCLSSIYEDLKMYQVEFKTMNAKLLMDPKRQIFLDQNMLAVIDELMQALNFNSETVPQKSSLEEPDFYATKIKLCILLHAFRIRAVTIDRVMSYLNAS | – | SEAP of CCR8-HEK-Blue IL-12 reporter cells (OD 650 nm), EC50 [2]: 12.5 nM |
